The results in this text go back to article PMC8487046, “Insights into the ligand binding specificity of SREC‐II (scavenger receptor expressed by endothelial cells)” (FEBS Open Bio, 2021).

The chains are these.
B2: SREC‐II(44‐442), extracellular domain of scavenger receptor expressed by endothelial cells II (domain or fragment)
chain: QELNPRGRNVCRAPGSQVPTCCAGWRQQGDECGIAVCEGNSTCSENEVCVRPGECRCRHGYFGANCDTKCPRQFWGPDCKELCSCHPHGQCEDVTGQCTCHARRWGARCEHACQCQHGTCHPRSGACRCEPGWWGAQCASACYCSATSRCDPQTGACLCHAGWWGRSCNNQCACNSSPCEQQSGRCQCRERTFGARCDRYCQCFRGRCHPVDGTCACEPGYRGKYCREPCPAGFYGLGCRRRCGQCKGQQPCTVAEGRCLTCEPGWNGTKCDQPCATGFYGEGCSHRCPPCRDGHACNHVTGKCTRCNAGWIGDRCETKCSNGTYGEDCAFVCADCGSGHCDFQSGRCLCSPGVHGPHCNVTCPPGLHGADCAQACSCHEDTCDPVTGACHLETNQRKGLIK
modifications: N‐terminal glutamine 44 converted to pyroglutamate; N‐glycosylated (extra mass of 11.3 kDa)
notes: SREC-II (encoded by SCARF2), extracellular moiety; 3 amino acids (Leu-Ile-Lys) between Gly442 and the 8 His residues; also called SREC‐II ectodomain; soluble SREC‐II; not shown: His8, C-terminal, kept

In assay [1] the target is B2. The assay can be described thus: SPR; SREC-II(44-442) immobilized (1973 RU, CM5, amine coupling), CRT injected at five increasing concentrations in single cycle kinetics mode; TBS-Ca-P; 30 µL/min; 25 °C; global fit, two-state reaction model; apparent KD. As to conditions: both partners purified.
Assay [2] deals with T1, complement C1q, purified human (human, UniProt P02745 23-245; P02746 28-253; P02747 29-245).
T1 construct: MW used: 459 300 g/mol; source: purified human C1q, prepared as described previously [8]; copies: + +
T1 sequence (P02745 23-245, chain 1 of 3): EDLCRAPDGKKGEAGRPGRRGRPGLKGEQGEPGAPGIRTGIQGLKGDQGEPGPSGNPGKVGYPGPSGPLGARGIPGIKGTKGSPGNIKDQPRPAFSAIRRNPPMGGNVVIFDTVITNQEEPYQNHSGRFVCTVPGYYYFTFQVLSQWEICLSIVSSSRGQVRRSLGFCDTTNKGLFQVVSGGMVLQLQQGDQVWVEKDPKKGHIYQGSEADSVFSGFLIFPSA
T1 sequence (P02746 28-253, chain 2 of 3): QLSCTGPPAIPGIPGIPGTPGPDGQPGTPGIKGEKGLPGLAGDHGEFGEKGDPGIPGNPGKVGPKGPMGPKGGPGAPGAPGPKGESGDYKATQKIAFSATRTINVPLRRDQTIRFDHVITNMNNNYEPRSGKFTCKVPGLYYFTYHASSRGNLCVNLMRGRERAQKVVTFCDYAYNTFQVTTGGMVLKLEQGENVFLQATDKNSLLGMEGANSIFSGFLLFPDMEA
T1 sequence (P02747 29-245, chain 3 of 3): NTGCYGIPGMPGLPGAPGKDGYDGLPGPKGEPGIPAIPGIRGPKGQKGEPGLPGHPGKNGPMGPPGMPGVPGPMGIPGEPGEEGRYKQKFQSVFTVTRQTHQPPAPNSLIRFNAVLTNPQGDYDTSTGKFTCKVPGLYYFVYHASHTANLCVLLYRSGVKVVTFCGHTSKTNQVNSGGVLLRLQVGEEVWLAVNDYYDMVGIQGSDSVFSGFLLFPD
The assay can be described thus: SPR; C1q immobilized (18 700 RU, CM5, amine coupling; BSA as reference surface), serially diluted SREC-II(44-442) injected; TBS-Ca-P; 20 µL/min; 25 °C; global fit, 1:1 Langmuir model; apparent KD. The note with it: both partners purified.

B1: recombinant human calreticulin (CRT) (natural protein, UniProt P27797 18-417, looked up)
chain: EPAVYFKEQFLDGDGWTSRWIESKHKSDFGKFVLSSGKFYGDEEKDKGLQTSQDARFYALSASFEPFSNKGQTLVVQFTVKHEQNIDCGGGYVKLFPNSLDQTDMHGDSEYNIMFGPDICGPGTKKVHVIFNYKGKNVLINKDIRCKDDEFTHLYTLIVRPDNTYEVKIDNSQVESGSLEDDWDFLPPKKIKDPDASKPEDWDERAKIDDPTDSKPEDWDKPEHIPDPDAKKPEDWDEEMDGEWEPPVIQNPEYKGEWKPRQIDNPDYKGTWIHPEIDNPEYSPDPSIYAYDNFGVLGLDLWQVKSGTIFDNFLITNDEAYAEEFGNETWGVTKAAEKQMKDKQDEEQRLKEEEEDKKRKEEEEAEDKEDDEDKDEDEEDEEDKEEDEEEDVPGQAKDEL
notes: calreticulin, human; source: recombinant, produced according to published procedures [6, 9]
Regarding B1, the Kd in assay [1] was determined as 290 nM.

In general, koff refers to the first-order rate constant of dissociation. As a reminder, the kon is a measure of how fast the partners come together. With B2, in assay [2], the Kd was found to be 45 nM, the off-rate (koff) worked out at 0.001 s⁻¹ and the on-rate constant (kon) came to 20000 M⁻¹ s⁻¹.
